From US20230110875A1 (US Dept. of Health and Human Services, published 2023)

Target: T1, mouse CD276-AP fusion protein (mouse, UniProt Q8VE98 29-248)
T1 construct: Coated on the ELISA plate at 2 ug/ml; not shown: AP fusion partner
T1 sequence (looked up): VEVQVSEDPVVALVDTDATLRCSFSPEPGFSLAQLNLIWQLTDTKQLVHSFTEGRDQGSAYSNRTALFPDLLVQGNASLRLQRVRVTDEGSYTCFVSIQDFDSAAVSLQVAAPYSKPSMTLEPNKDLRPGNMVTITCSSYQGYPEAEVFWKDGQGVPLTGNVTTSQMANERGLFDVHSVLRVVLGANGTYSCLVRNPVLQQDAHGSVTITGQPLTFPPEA
Test: ELISA, mouse CD276-AP fusion protein coated at 2 ug/ml, serially diluted scFv-Fc culture medium, HRP goat anti-human IgG, OD 450 nm
Experimental: 50 μl of the diluted mouse or human CD276-AP fusion protein in PBS at 2 μg/ml was coated in a 96-well plate at 4° C. overnight. Transiently expressed scFv-Fc fusion protein in the culture medium was serially diluted and added into the target protein coated wells. After washing, a 1:3000 diluted horseradish peroxidase (HRP) conjugated goat anti-human IgG antibody was added for 1 hr at RT. After washing, 3, 3, 5, 5′-Tetramethylbenzidine (TMB) substrate was added, and the optical density (O.D.) was read at 450 nm.

B1: Clone CD276.1 (m851) scFv-Fc fusion protein (Fc fusion)
scFv: QVQLQQSGAEVKKPGSSVKVSCKASGGTFSSYAISWVRQAPGQGLEWMGGIIPILGIANYAQKFQGRVTITADESTSTAYMELSSLRSEDTAVYYCARGGAGGSGSYYPLIWGQGTTVTVSSGGGGSGGGGSGGGGSEIVLTQSPATLSLSPGERATLSCGASQSVSSSYLAWYQQKPGQAPRLLIYDASSRATGIPARFSGSGSGTDFTLTISSLEPEDFAVYYCQQRSSWPPTWTFGQGTKLEIKR
notes: also called m851 (CD276.1); not shown: Fc-Avi tag from modified pSecTag vector
binding result: no binding
